Measurements reported in publication PMC6037002, “Drug targeting to decrease cardiotoxicity – determination of the cytotoxic effect of GnRH-based conjugates containing doxorubicin, daunorubicin and methotrexate on human cardiomyocytes and endothelial cells” (Beilstein Journal of Organic Chemistry, 2018).
Read-outs that look alike come from different tables or passages of the source.

Legend:
[1] = tested on: primary human cardiac myocytes (HCM); conditions: for delta slope (DS), short-term / delta slope (DS), long-term: HCM, three parallels; for delta slope (DS), short-term: 0–2 h; for delta slope (DS), long-term: 0–72 h; for cytotoxic effect on HCM, result in words: long-term (0–72 h), 10^−8–10^−6 mol/L (free drugs 10^−12–10^−6 mol/L), impedimetry, one-way ANOVA; for Cardiotoxicity, HCM: grade +++/++/+/0, key not given, summary of impedimetric cytotoxicity
[2] = tested on: human umbilical vein endothelial cells (HUVEC); test: Impedimetric measurement (xCELLigence SP), delta slope, HUVEC; conditions: for delta slope (DS), short-term / delta slope (DS), long-term: HUVEC, three parallels; for delta slope (DS), short-term: 0–2 h; for delta slope (DS), long-term: 0–72 h; for Cardiotoxicity, HUVEC: grade +++/++/+/0, key not given, summary of impedimetric cytotoxicity; for cytotoxic effect on HUVEC, result in words: long-term (0–72 h), 10^−8–10^−6 mol/L, impedimetry, one-way ANOVA
[3] = cited from earlier work
Experimental: The GnRH derivatives were prepared by solid phase peptide synthesis (SPPS) according to Fmoc/t-Bu strategy (Supporting Information File 2). Three drug molecules, doxorubicin (Dox), daunorubicin (Dau) and methotrexate (Mtx), were employed in the preparation of drug conjugates. Dox has three potential conjugation sites; i) a primary OH group at C-14 on the aglycone part, which is suitable for ester bond formation, ii) an oxo group at C-13 is available for the generation of an oxime linkage and iii) the amino group on the daunosamine sugar moiety, which can be used for amide bond formation. The d ...

[4] = tested on: MCF-7 human breast adenocarcinoma cells; conditions: MTT assay; cited from earlier work
From the text: (§1) Table 1 Comparative study of cytotoxic effects and cardiotoxicity elicited by GnRH-based antitumor compounds (1–15) and reference substances (AN-152, Dox, Dau, Mtx). IC50 values show antitumor cytotoxic characteristics of the conjugates in human breast cancer (MCF-7), human colorectal adenocarcinoma (HT-29) and human acute monocytic leukemia (MM6) derived cell lines as representative tumor cells.

[5] = tested on: HT-29 human colon adenocarcinoma cells; conditions: MTT assay; cited from earlier work
From the text: as §1

[6] = tested on: human acute monocytic leukemia (MonoMac6) cells; conditions: cited from earlier work
From the text: as §1

Substance	delta slope (DS), short-term ([1]; Table S3b, 10^-6 mol/L)	delta slope (DS), short-term ([1]; Table S3b, 10^-7 mol/L)	delta slope (DS), short-term ([1]; Table S3b, 10^-8 mol/L)	delta slope (DS), long-term ([1]; Table S3b, 10^-6 mol/L)	delta slope (DS), long-term ([1]; Table S3b, 10^-7 mol/L)	delta slope (DS), long-term ([1]; Table S3b, 10^-8 mol/L)	delta slope (DS), short-term ([2]; Table S3a, 10^-6 mol/L)	delta slope (DS), short-term ([2]; Table S3a, 10^-7 mol/L)	delta slope (DS), short-term ([2]; Table S3a, 10^-8 mol/L)	delta slope (DS), long-term ([2]; Table S3a, 10^-6 mol/L)	delta slope (DS), long-term ([2]; Table S3a, 10^-7 mol/L)	delta slope (DS), long-term ([2]; Table S3a, 10^-8 mol/L)	Cardiotoxicity, HUVEC [2]	cytotoxic effect on HUVEC, result in words [2]	enzymatic stability, result in words [3]	IC50 [4] [µM]	IC50 [5] [µM]	IC50 [6] [µM]	cytotoxic effect on HCM, result in words [1]	Cardiotoxicity, HCM [1]	other results
[^4Lys(Ac)]-GnRH-III(Dau=Aoa) [conjugate 5]	-0.005	-0.001	-0.002	−0.003	-0.001	0.001	0.002	0.004	-0.001	-0.001	-0.001	-0.001	0	completely lost the cytotoxic effect	increased the enzymatic stability	3.1 ± 1.7	7.4 ± 2.6	0.925 ± 0.07	–	–	–
[^4Lys(Dau=Aoa)]-GnRH-III(Dau=Aoa) [conjugate 14]	-0.001	-0.002	0.001	-0.002	-0.001	-0.0011	0.006	-0.005	0.002	-0.001	-0.001	0.001	0	completely lost the cytotoxic effect	–	2.9 ± 0.9	6.8 ± 1	0.513 ± 0.04	completely lost their cytotoxic effect	–	–
[^4Lys(Mtx)]-GnRH-III(Dau=Aoa) [conjugate 15]	–	–	–	–	–	–	–	–	–	–	–	–	0	no significant cytotoxic effect	–	5.8 ± 1.1	3.6 ± 1.5	> 1	none of the two investigated mixed drug–GnRH-III conjugates (13 and 15) exerted any significant cytotoxic effect	0	delta slope (DS), short-term ([1]; Table S5b, 10^-6 mol/L): -0.001; delta slope (DS), short-term ([1]; Table S5b, 10^-7 mol/L): -0.002; delta slope (DS), short-term ([1]; Table S5b, 10^-8 mol/L): -0.003; delta slope (DS), long-term ([1]; Table S5b, 10^-6 mol/L): -0.001; delta slope (DS), long-term ([1]; Table S5b, 10^-7 mol/L): 0.001; delta slope (DS), long-term ([1]; Table S5b, 10^-8 mol/L): -0.001; delta slope (DS), short-term ([2]; Table S5a, 10^-6 mol/L): 0.006; delta slope (DS), short-term ([2]; Table S5a, 10^-7 mol/L): -0.002; delta slope (DS), short-term ([2]; Table S5a, 10^-8 mol/L): 0.006; delta slope (DS), long-term ([2]; Table S5a, 10^-6 mol/L): -0.001; delta slope (DS), long-term ([2]; Table S5a, 10^-7 mol/L): -0.001; delta slope (DS), long-term ([2]; Table S5a, 10^-8 mol/L): 0.003
[^4N-MeSer]-GnRH-III(Dau=Aoa) [conjugate 6]	–	–	–	–	–	–	–	–	–	–	–	–	0	completely lost the cytotoxic effect	increased the enzymatic stability	10.6 ± 2.1	–	> 1	completely lost their cytotoxic effect	0	delta slope (DS), short-term ([1]; Table S4b, 10^-6 mol/L): 0.001; delta slope (DS), short-term ([1]; Table S4b, 10^-7 mol/L): -0.001; delta slope (DS), short-term ([1]; Table S4b, 10^-8 mol/L): -0.005; delta slope (DS), long-term ([1]; Table S4b, 10^-6 mol/L): 0.001; delta slope (DS), long-term ([1]; Table S4b, 10^-7 mol/L): -0.002; delta slope (DS), long-term ([1]; Table S4b, 10^-8 mol/L): -0.002; delta slope (DS), short-term ([2]; Table S4a, 10^-6 mol/L): 0.006; delta slope (DS), short-term ([2]; Table S4a, 10^-7 mol/L): 0.002; delta slope (DS), short-term ([2]; Table S4a, 10^-8 mol/L): 0.011; delta slope (DS), long-term ([2]; Table S4a, 10^-6 mol/L): 0.001; delta slope (DS), long-term ([2]; Table S4a, 10^-7 mol/L): -0.001; delta slope (DS), long-term ([2]; Table S4a, 10^-8 mol/L): 0.001
